The values below are quoted from earlier work in publication PMC5152572.

Read-outs that look alike come from different tables or passages of the source.

Data set [1] deals with IL-1 receptor (Homo sapiens) (UniProt P14778).
Data set [2] shares this target. The source holds these as a separate data set.

UniProt P14778, sequence (P14778 18-569): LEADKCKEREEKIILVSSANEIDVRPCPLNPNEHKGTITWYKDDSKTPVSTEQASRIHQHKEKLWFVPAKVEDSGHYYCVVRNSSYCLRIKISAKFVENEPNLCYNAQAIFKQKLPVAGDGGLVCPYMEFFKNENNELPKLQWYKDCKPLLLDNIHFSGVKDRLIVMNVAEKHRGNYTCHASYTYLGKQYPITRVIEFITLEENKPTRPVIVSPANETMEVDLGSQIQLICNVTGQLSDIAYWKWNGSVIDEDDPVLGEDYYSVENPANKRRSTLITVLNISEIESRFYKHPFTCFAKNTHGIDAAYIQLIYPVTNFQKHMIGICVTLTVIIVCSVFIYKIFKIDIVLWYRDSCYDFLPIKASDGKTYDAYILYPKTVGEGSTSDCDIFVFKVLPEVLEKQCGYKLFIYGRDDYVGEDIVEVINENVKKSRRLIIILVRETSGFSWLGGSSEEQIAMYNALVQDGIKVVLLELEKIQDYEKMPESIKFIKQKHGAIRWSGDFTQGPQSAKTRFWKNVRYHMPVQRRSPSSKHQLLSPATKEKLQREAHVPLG

With pro-IL-1α (from UniProt P01583), the Kd in data set [1] was 4 nM.

For “mature IL-1α mature (from UniProt P01583)”, the Kd in data set [2] is 4.5 nM.
